Molecular target: αvβ3 integrin (human (endogenous in U87MG)) (UniProt P06756)
Sequence of UniProt P06756 (P06756 31-1048, chain 1 of 2): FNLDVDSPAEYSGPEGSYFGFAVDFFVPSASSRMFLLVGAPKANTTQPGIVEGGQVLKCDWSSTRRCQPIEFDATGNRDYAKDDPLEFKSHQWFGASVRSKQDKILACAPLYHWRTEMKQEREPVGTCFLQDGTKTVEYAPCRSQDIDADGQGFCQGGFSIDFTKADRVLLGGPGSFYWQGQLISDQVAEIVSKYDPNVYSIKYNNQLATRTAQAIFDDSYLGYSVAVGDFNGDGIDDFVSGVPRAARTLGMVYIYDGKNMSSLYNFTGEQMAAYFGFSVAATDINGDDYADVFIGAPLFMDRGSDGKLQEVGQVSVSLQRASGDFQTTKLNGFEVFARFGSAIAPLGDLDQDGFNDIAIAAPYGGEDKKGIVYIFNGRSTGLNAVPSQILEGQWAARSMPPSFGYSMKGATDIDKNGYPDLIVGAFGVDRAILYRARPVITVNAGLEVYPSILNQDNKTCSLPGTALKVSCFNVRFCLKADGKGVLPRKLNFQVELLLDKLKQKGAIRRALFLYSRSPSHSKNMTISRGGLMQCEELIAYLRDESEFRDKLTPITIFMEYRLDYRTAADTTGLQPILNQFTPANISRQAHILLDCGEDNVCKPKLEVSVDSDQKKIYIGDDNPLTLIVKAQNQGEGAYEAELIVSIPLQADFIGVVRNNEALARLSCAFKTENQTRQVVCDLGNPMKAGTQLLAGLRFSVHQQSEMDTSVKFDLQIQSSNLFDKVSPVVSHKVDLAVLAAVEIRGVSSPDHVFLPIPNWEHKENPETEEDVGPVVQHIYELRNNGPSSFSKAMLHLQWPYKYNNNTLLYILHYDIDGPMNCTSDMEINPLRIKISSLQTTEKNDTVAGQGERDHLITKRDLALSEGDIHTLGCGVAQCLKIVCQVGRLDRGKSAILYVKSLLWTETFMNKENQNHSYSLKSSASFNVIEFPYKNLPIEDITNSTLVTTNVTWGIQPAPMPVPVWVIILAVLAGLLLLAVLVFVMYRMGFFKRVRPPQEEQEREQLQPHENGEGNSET
Sequence of UniProt P06756 (P05106 27-788, chain 2 of 2, further chain): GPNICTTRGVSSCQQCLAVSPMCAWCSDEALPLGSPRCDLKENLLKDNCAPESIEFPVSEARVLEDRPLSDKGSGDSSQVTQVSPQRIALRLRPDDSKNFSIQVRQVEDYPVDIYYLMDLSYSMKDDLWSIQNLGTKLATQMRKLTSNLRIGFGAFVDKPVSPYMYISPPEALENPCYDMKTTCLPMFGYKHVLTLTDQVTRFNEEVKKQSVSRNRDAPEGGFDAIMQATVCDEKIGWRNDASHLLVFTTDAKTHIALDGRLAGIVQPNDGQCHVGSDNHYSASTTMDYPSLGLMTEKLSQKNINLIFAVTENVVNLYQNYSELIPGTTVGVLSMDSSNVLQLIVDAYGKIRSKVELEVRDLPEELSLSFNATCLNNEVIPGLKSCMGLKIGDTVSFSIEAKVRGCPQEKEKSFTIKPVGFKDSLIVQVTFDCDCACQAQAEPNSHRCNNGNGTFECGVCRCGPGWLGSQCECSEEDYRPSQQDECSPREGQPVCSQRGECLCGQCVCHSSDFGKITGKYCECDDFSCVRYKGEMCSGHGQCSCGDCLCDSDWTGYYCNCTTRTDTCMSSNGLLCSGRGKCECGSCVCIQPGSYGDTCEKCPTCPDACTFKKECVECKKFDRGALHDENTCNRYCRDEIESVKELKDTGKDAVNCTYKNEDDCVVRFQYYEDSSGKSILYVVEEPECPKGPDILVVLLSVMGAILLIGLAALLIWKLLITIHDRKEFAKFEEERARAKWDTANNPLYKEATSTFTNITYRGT

700DX-PEG-PGlu-cRGD15 (peptide)
cellular uptake in U87MG cells at 200 nM 700DX (fluorescence intensity after 7 h), fold over cells incubated with 700DX-PEG-cRGD: 2.5 times | cellular uptake in U87MG cells at 200 nM 700DX (fluorescence intensity after 7 h), fold over cells incubated with free 700DX: 4.5 times
